Data reported in the supplement of paper PMC10567573.

B1: PLD5 (parent)
chain: KRTYWPDLDAKIREALVLRSVRVR
B2: EFHC1 (parent)
chain: NIYYYLEDDSMSVIEPVVENSGIL
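Also: lentivirally expressed fusions sorted by FACS into six bins by GFP to DsRed ratio, PSI derived from sequencing read proportions per bin multiplied by bin number.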

Variants of: B1
Test: protein stability index of a GFP-peptide fusion (GPS, HEK-293T) (PSI 1-6); higher = more stable
Conditions: c terminus: a fixed tail appended
KRLYWPDLDAKIREALVLRSVRVR [T3L] gave a protein stability index of 2.83. For KRSYWPDLDAKIREALVLRSVRVR [T3S], the protein stability index was 1.6. KRWYWPDLDAKIREALVLRSVRVR [T3W] showed a protein stability index of 1.12. With KREYWPDLDAKIREALVLRSVRVR [T3E] the protein stability index was 1.28. With KRIYWPDLDAKIREALVLRSVRVR [T3I] the protein stability index was 1.46. KRQYWPDLDAKIREALVLRSVRVR [T3Q] gave a protein stability index of 2.91. KRAYWPDLDAKIREALVLRSVRVR [T3A] gave a protein stability index of 1.78. NRTYWPDLDAKIREALVLRSVRVR [K1N] showed a protein stability index of 2.21. YRTYWPDLDAKIREALVLRSVRVR [K1Y] showed a protein stability index of 1.05. Work on TRTYWPDLDAKIREALVLRSVRVR [K1T] yielded a protein stability index of 1.93. Variant MRTYWPDLDAKIREALVLRSVRVR [K1M] has a protein stability index of 1.79. Work on RRTYWPDLDAKIREALVLRSVRVR [K1R] yielded a protein stability index of 1.92. With SRTYWPDLDAKIREALVLRSVRVR [K1S] the protein stability index was 1.84. With LRTYWPDLDAKIREALVLRSVRVR [K1L] the protein stability index was 1.6. Variant FRTYWPDLDAKIREALVLRSVRVR [K1F] has a protein stability index of 2.55. Variant CRTYWPDLDAKIREALVLRSVRVR [K1C] has a protein stability index of 1.46. With HRTYWPDLDAKIREALVLRSVRVR [K1H] the protein stability index was 2.25. ERTYWPDLDAKIREALVLRSVRVR [K1E] showed a protein stability index of 2.58. DRTYWPDLDAKIREALVLRSVRVR [K1D] showed a protein stability index of 2.06. Variant GRTYWPDLDAKIREALVLRSVRVR [K1G] has a protein stability index of 2.53. In the case of PRTYWPDLDAKIREALVLRSVRVR [K1P], the protein stability index is reported as 1.79. Variant KRTYDPDLDAKIREALVLRSVRVR [W5D] has a protein stability index of 1.73. With KRTYAPDLDAKIREALVLRSVRVR [W5A] the protein stability index was 1.86. Work on KRTYNPDLDAKIREALVLRSVRVR [W5N] yielded a protein stability index of 1.96. With KRTYEPDLDAKIREALVLRSVRVR [W5E] the protein stability index was 2.79. In the case of KRTYHPDLDAKIREALVLRSVRVR [W5H], the protein stability index is reported as 2.9. For KRTYIPDLDAKIREALVLRSVRVR [W5I], the protein stability index was 3.62. KRTYKPDLDAKIREALVLRSVRVR [W5K] gave a protein stability index of 2.01. Work on KRTYCPDLDAKIREALVLRSVRVR [W5C] yielded a protein stability index of 1.5. With KHTYWPDLDAKIREALVLRSVRVR [R2H] the protein stability index was 1.54. Work on KKTYWPDLDAKIREALVLRSVRVR [R2K] yielded a protein stability index of 2.56. KQTYWPDLDAKIREALVLRSVRVR [R2Q] showed a protein stability index of 2.31. Variant KNTYWPDLDAKIREALVLRSVRVR [R2N] has a protein stability index of 2.14. KFTYWPDLDAKIREALVLRSVRVR [R2F] showed a protein stability index of 2.92. Variant KYTYWPDLDAKIREALVLRSVRVR [R2Y] has a protein stability index of 1.09. Work on KMTYWPDLDAKIREALVLRSVRVR [R2M] yielded a protein stability index of 1.77. With KPTYWPDLDAKIREALVLRSVRVR [R2P] the protein stability index was 2.7. For KETYWPDLDAKIREALVLRSVRVR [R2E], the protein stability index was 2.14. With KTTYWPDLDAKIREALVLRSVRVR [R2T] the protein stability index was 2.63. KVTYWPDLDAKIREALVLRSVRVR [R2V] gave a protein stability index of 2.43. In the case of KWTYWPDLDAKIREALVLRSVRVR [R2W], the protein stability index is reported as 1.32. Variant KRTFWPDLDAKIREALVLRSVRVR [Y4F] has a protein stability index of 1.41. With KRTLWPDLDAKIREALVLRSVRVR [Y4L] the protein stability index was 2.27. For KRTHWPDLDAKIREALVLRSVRVR [Y4H], the protein stability index was 2.25. Work on KRTTWPDLDAKIREALVLRSVRVR [Y4T] yielded a protein stability index of 1.82. Variant KRTKWPDLDAKIREALVLRSVRVR [Y4K] has a protein stability index of 1.48. Variant KRTAWPDLDAKIREALVLRSVRVR [Y4A] has a protein stability index of 1.17. KRTVWPDLDAKIREALVLRSVRVR [Y4V] showed a protein stability index of 3.54. KRTWWPDLDAKIREALVLRSVRVR [Y4W] gave a protein stability index of 1.75. With KRTSWPDLDAKIREALVLRSVRVR [Y4S] the protein stability index was 1.67. KRTGWPDLDAKIREALVLRSVRVR [Y4G] showed a protein stability index of 2.01. With KRTCWPDLDAKIREALVLRSVRVR [Y4C] the protein stability index was 1.85. For KRTPWPDLDAKIREALVLRSVRVR [Y4P], the protein stability index was 1.9. Variant KRTIWPDLDAKIREALVLRSVRVR [Y4I] has a protein stability index of 1.96. KRTDWPDLDAKIREALVLRSVRVR [Y4D] gave a protein stability index of 2.75. KRTEWPDLDAKIREALVLRSVRVR [Y4E] showed a protein stability index of 2.69. KRTQWPDLDAKIREALVLRSVRVR [Y4Q] gave a protein stability index of 1.93.

Variants of: B2
Test: as above
Conditions: c terminus: a fixed tail appended
In the case of NIYYYLEDDSMSVIEPVVENSGIC [L24C], the protein stability index is reported as 2.02. Variant NIYYYLEDDSMSVIEPVVENSGIN [L24N] has a protein stability index of 2.48. In the case of NIYYYLEDDSMSVIEPVVENSGIF [L24F], the protein stability index is reported as 2.12. For NIYYYLEDDSMSVIEPVVENSGIS [L24S], the protein stability index was 2.58. With NIYYYLEDDSMSVIEPVVENSGIM [L24M] the protein stability index was 2.02. NIYYYLEDDSMSVIEPVVENSGIV [L24V] gave a protein stability index of 2.21. Variant NIYYYLEDDSMSVIEPVVENSGID [L24D] has a protein stability index of 2.48. Variant NIYYYLEDDSMSVIEPVVENSGII [L24I] has a protein stability index of 3.15. NIYYYLEDDSMSVIEPVVENSGIP [L24P] gave a protein stability index of 2.41. In the case of NIYYYLEDDSMSVIEPVVENSGIR [L24R], the protein stability index is reported as 2.46. Work on NIYYYLEDDSMSVIEPVVENSGIG [L24G] yielded a protein stability index of 2.47. NIYYYLEDDSMSVIEPVVENSGIH [L24H] gave a protein stability index of 2.31. For NIYYYLEDDSMSVIEPVVENSGIY [L24Y], the protein stability index was 2.31. Work on NIYYYLEDDSMSVIEPVVENSGIA [L24A] yielded a protein stability index of 2.08. In the case of NIYYYLEDDSMSVIEPVVENSGIW [L24W], the protein stability index is reported as 1.4. Variant NIYYYLEDDSMSVIEPVVENSGIQ [L24Q] has a protein stability index of 2.36. Work on NIYYYLEDDSMSVIEPVVENSGPL [I23P] yielded a protein stability index of 2.42. For NIYYYLEDDSMSVIEPVVENSGFL [I23F], the protein stability index was 1.2. With NIYYYLEDDSMSVIEPVVENSGGL [I23G] the protein stability index was 2.14. Work on NIYYYLEDDSMSVIEPVVENSGVL [I23V] yielded a protein stability index of 1.8. NIYYYLEDDSMSVIEPVVENSGHL [I23H] gave a protein stability index of 2.43. In the case of NIYYYLEDDSMSVIEPVVENSGKL [I23K], the protein stability index is reported as 2.53. Work on NIYYYLEDDSMSVIEPVVENSGCL [I23C] yielded a protein stability index of 2.12. Variant NIYYYLEDDSMSVIEPVVENSGWL [I23W] has a protein stability index of 2.47. Work on NIYYYLEDDSMSVIEPVVENSGQL [I23Q] yielded a protein stability index of 2.78. In the case of NIYYYLEDDSMSVIEPVVENSGDL [I23D], the protein stability index is reported as 2.81. For NIYYYLEDDSMSVIEPVVENSGEL [I23E], the protein stability index was 3.12. In the case of NIYYYLEDDSMSVIEPVVENSGRL [I23R], the protein stability index is reported as 1.99. NIYYYLEDDSMSVIEPVVENSGNL [I23N] showed a protein stability index of 2.71. With NIYYYLEDDSMSVIEPVVENSGAL [I23A] the protein stability index was 2.82. Work on NIYYYLEDDSMSVIEPVVENSGYL [I23Y] yielded a protein stability index of 2.51. With NIYYYLEDDSMSVIEPVVENSGTL [I23T] the protein stability index was 3.04. NIYYYLEDDSMSVIEPVVENSTIL [G22T] showed a protein stability index of 1.42. In the case of NIYYYLEDDSMSVIEPVVENSPIL [G22P], the protein stability index is reported as 2.14. Variant NIYYYLEDDSMSVIEPVVENSVIL [G22V] has a protein stability index of 2.43. In the case of NIYYYLEDDSMSVIEPVVENSKIL [G22K], the protein stability index is reported as 1.78. In the case of NIYYYLEDDSMSVIEPVVENSSIL [G22S], the protein stability index is reported as 1.7.
